From US20260144882A1 (BIO THERA SOLUTIONS, published 2026)
Substitutions are numbered along the chain they refer to.

B1: 1F3-2F1 scFv (scFv, V domains shown)
VH: EVQLVESGGGLVQPGGSLRLSCAASGDIFTGYSMSWVRQAPGKGLEWVSGIYQTGSNTRYADSVKGRFTISRDNSKNTLYLQMNSLRAEDTAVYYCARAELLAFDVYTASDYWGQGTLVTVSS
VL: DIQMTQSPSSLSASVGDRVTITCRASQGISSYLAWYQQKPGKAPKLLIYAASSLQSGVPSRFSGSGSGTDFTLTISSLQPEDFATYYCQQHYTTPPTFGQGTKVEIKR
notes: phage clone supernatant
B2: 1G8-2D4 scFv (scFv, V domains shown)
VH: EVQLVESGGGLVQPGGSLRLSCAASGYNFGGYAMSWVRQAPGKGLEWVSRISGTSGNNDYADSVKGRFTISRDNSKNTLYLQMNSLRAEDTAVYYCARQTEDRSYGYDLDYWGQGTLVTVSS
VL: B1 VL
notes: phage clone supernatant
B3: 1G8-1G3 scFv (scFv, V domains shown)
VH: B2 VH with Y27F, G31T, T54I, G56A, N57G, N58T, D59N
VL: B1 VL
notes: phage clone supernatant
B4: 1G8-1G9 scFv (scFv, V domains shown)
VH: B2 VH with Y27F, G31D, Y32F, S52Y, G53S, T54G, S55D, G56D, N58A, D59S
VL: B1 VL
notes: phage clone supernatant
B5: 1G8-1C10 scFv (scFv, V domains shown)
VH: B2 VH with Y27F, G30S, G31D, A33S, S52K, G53A, T54S, N57G, N58S
VL: B1 VL
notes: phage clone supernatant
B6: 1G8-2A11 scFv (scFv, V domains shown)
VH: EVQLVESGGGLVQPGGSLRLSCAASGDSFYNYSMSWVRQAPGKGLEWVSRISSDGWETFYADSVKGRFTISRDNSKNTLYLQMNSLRAEDTAVYYCARQTEDRSYGYDLDYWGQGTLVTVSS
VL: B1 VL
notes: phage clone supernatant
B7: 1G8-1D7 scFv (scFv, V domains shown)
VH: EVQLVESGGGLVQPGGSLRLSCAASGGSFSNYAMSWVRQAPGKGLEWVSWIDTTSAYASYADSVKGRFTISRDNSKNTLYLQMNSLRAEDTAVYYCARQTEDRSYGYDLDYWGQGTLVTVSS
VL: B1 VL
notes: phage clone supernatant
B8: 1G8-1E12 scFv (scFv, V domains shown)
VH: B2 VH with Y27F, G30T, G31S, G53A, T54H, S55K, G56W, N57D, N58A, D59S
VL: B1 VL
notes: phage clone supernatant
B9: 1G8-2A1 scFv (scFv, V domains shown)
VH: B2 VH with N28S, G30D, Y32F, T54H, S55D, G56W, N57S, N58S, D59S
VL: B1 VL
notes: phage clone supernatant
B10: 1G8-1E6 scFv (scFv, V domains shown)
VH: B6 VH with D27Y, S28I, Y30T, N31D, S52Y, S53T, T58K, F59D
VL: B1 VL
notes: phage clone supernatant
B11: 1G8-1B7 scFv (scFv, V domains shown)
VH: B6 VH with D27Y, Y30S, S33A, S53A, D54W, W56S, E57T, T58N, F59N
VL: B1 VL
notes: phage clone supernatant
B12: 1G8-1G12 scFv (scFv, V domains shown)
VH: B2 VH with G30T, G31S, Y32S, S52Y, G53S, T54I, N58T
VL: B1 VL
notes: phage clone supernatant
B13: 1G8-1F11 scFv (scFv, V domains shown)
VH: B2 VH with Y27D, N28T, G30S, G31S, G53Q, S55G, N57T, N58T
VL: B1 VL
notes: phage clone supernatant
B14: 1F3-2G9 scFv (scFv, V domains shown)
VH: EVQLVESGGGLVQPGGSLRLSCAASGFTFGGYGMSWVRQAPGKGLEWVSWISAWDGSIYYADSVKGRFTISRDNSKNTLYLQMNSLRAEDTAVYYCARAELLAFDVYTASDYWGQGTLVTVSS
VL: B1 VL
notes: phage clone supernatant
B15: 1G8-1A3 scFv (scFv, V domains shown)
VH: B2 VH with G31S, S52Y, G53P, T54G, G56W, N57S, N58P
VL: B1 VL
notes: phage clone supernatant
B16: 1G8-1C1 scFv (scFv, V domains shown)
VH: B7 VH with G27Y, S28I, W50R, D52S, T54G, S55F, Y57G, A58P, S59D
VL: B1 VL
notes: phage clone supernatant
B17: 1G8-2A4 scFv (scFv, V domains shown)
VH: B2 VH with Y27D, N28T, G30S, G31S, Y32N, S52Y, T54G, G56W, N57D, N58T
VL: B1 VL
notes: phage clone supernatant
B18: 1G8-1A12 scFv (scFv, V domains shown)
VH: EVQLVESGGGLVQPGGSLRLSCAASGGTFDTNAMSWVRQAPGKGLEWVSAISTGGDNKRYADSVKGRFTISRDNSKNTLYLQMNSLRAEDTAVYYCARQTEDRSYGYDLDYWGQGTLVTVSS
VL: B1 VL
notes: phage clone supernatant
B19: 1F3-2H6 scFv (scFv, V domains shown)
VH: EVQLVESGGGLVQPGGSLRLSCAASGYTFSSYGMSWVRQAPGKGLEWVSRIKSDGGDTHYADSVKGRFTISRDNSKNTLYLQMNSLRAEDTAVYYCARAELLAFDVYTASDYWGQGTLVTVSS
VL: B1 VL
notes: phage clone supernatant
B20: 1G8-1H6 scFv (scFv, V domains shown)
VH: B2 VH with Y27F, G30S, Y32F, S52Y, G53P, G56S, N57E, N58S
VL: B1 VL
notes: phage clone supernatant
B21: 1G8-1G5 scFv (scFv, V domains shown)
VH: B2 VH with G30T, G31T, Y32S, S52Y, G53A, T54D, S55T, G56A, N57Y
VL: B1 VL
notes: phage clone supernatant
B22: 1F3-2H12 scFv (scFv, V domains shown)
VH: EVQLVESGGGLVQPGGSLRLSCAASGDSFDSSGMSWVRQAPGKGLEWVSGIKWITGESYYADSVKGRFTISRDNSKNTLYLQMNSLRAEDTAVYYCARAELLAFDVYTASDYWGQGTLVTVSS
VL: B1 VL
notes: phage clone supernatant
B23: 1G8-1H1 scFv (scFv, V domains shown)
VH: B2 VH with Y27D, N28T, G30S, S52Y, G53P, T54Y, G56S, N57V, N58R
VL: B1 VL
notes: phage clone supernatant
B24: 1G8-1E10 scFv (scFv, V domains shown)
VH: B6 VH with Y30S, N31T, S33A, S53G, D54S, W56D, E57G, T58K, F59D
VL: B1 VL
notes: phage clone supernatant
B25: 1G8-1A7 scFv (scFv, V domains shown)
VH: B18 VH with G27Y, T31S, N32Y, A50R, S52K, G54T, G55D, N57G, R59S
VL: B1 VL
notes: phage clone supernatant
B26: 1F3-2F3 scFv (scFv, V domains shown)
VH: B19 VH with Y27F, T28N, S31D, K52D, S53W, D57N, H59R
VL: B1 VL
notes: phage clone supernatant
B27: 1F3-2F6 scFv (scFv, V domains shown)
VH: B14 VH with G30S, G31D, W50R, A53Q, W54Y, D55G, S57G, Y59R
VL: B1 VL
notes: phage clone supernatant
B28: 1F3-2G10 scFv (scFv, V domains shown)
VH: B19 VH with Y27F, T28N, S31N, S53P, D54T, G55D, D57S
VL: B1 VL
notes: phage clone supernatant
B29: 1G8-1F7 scFv (scFv, V domains shown)
VH: B18 VH with G27Y, T28S, D30Y, T31G, N32Y, S52D, T53A, G54I, D56G
VL: B1 VL
notes: phage clone supernatant
B30: 1G8-1E8 scFv (scFv, V domains shown)
VH: B2 VH with Y27F, N28T, G30D, G53S, T54Y, G56W, N58P
VL: B1 VL
notes: phage clone supernatant
B31: 1G8-1B11 scFv (scFv, V domains shown)
VH: B7 VH with G27Y, S28N, W50A, T53A, T54S, S55G, A56G, Y57D, A58T, S59R
VL: B1 VL
notes: phage clone supernatant
B32: 1G8-2A7 scFv (scFv, V domains shown)
VH: B6 VH with D27Y, Y30S, N31D, S33A, S53A, D54Y, E57G, T58K, F59S
VL: B1 VL
notes: phage clone supernatant
B33: 1G8-1C8 scFv (scFv, V domains shown)
VH: B18 VH with G27F, T28S, D30G, T31S, N32S, T53G, G54S, G55S, N57S, K58P
VL: B1 VL
notes: phage clone supernatant
B34: 1G8-1D11 scFv (scFv, V domains shown)
VH: B2 VH with Y27D, N28I, G30T, S52D, S55G, G56D, N57S, N58K, D59F
VL: B1 VL
notes: phage clone supernatant

Biological target: T1, human Nectin-4 extracellular antigen hNectin-4-His (human, UniProt Q96NY8 32-349)
T1 construct: C-terminal 8xHis tag included
T1 sequence: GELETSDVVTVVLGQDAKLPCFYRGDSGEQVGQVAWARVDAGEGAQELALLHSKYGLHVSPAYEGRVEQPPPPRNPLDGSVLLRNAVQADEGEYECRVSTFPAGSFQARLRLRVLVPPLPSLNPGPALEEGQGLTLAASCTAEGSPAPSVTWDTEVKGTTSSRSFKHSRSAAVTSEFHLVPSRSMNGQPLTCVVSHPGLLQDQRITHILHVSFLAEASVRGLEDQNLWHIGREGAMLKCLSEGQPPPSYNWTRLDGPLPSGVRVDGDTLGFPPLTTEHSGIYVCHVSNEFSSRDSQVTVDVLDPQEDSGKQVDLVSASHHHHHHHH
Assay: ELISA, phage scFv supernatant 1:50
Description: The supernatants were diluted 50-fold, and the binding OD values of the diluted supernatants to hNectin-4-His were measured by ELISA. The samples were serially 3-fold diluted, and the EC₅₀ titer for the binding of the supernatants to the antigen was measured by ELISA. […] The light chain variable region sequence is set forth in SEQ ID NO: 25. The OD value is the measurement of ELISA, and the EC₅₀ value denotes the EC₅₀ value of the binding activity titer of the supernatant to the antigen.

| Binder | OD value [OD] |
| --- | --- |
| B1 | 1.02 |
| B2 | 1.58 |
| B3 | 1.58 |
| B4 | 1.55 |
| B5 | 1.61 |
| B6 | 1.54 |
| B7 | 1.49 |
| B8 | 1.61 |
| B9 | 1.6 |
| B10 | 1.48 |
| B11 | 1.56 |
| B12 | 1.55 |
| B13 | 1.6 |
| B14 | 1.38 |
| B15 | 1.62 |
| B16 | 1.5 |
| B17 | 1.54 |

| Binder | OD value [OD] |
| --- | --- |
| B18 | 1.61 |
| B19 | 1.31 |
| B20 | 1.58 |
| B21 | 1.48 |
| B22 | 1.59 |
| B23 | 1.4 |
| B24 | 1.6 |
| B25 | 1.57 |
| B26 | 1.57 |
| B27 | 1.52 |
| B28 | 1.54 |
| B29 | 1.58 |
| B30 | 1.55 |
| B31 | 1.58 |
| B32 | 1.6 |
| B33 | 1.59 |
| B34 | 1.59 |
